Measured values as given in the supplement of paper PMC10567573.

B1: TRIM14 (parent)
chain: YARTPTLDPDTMHARLRLSADRLT
B2: STK38L (parent)
chain: FCIDSENRIGNSGVEEIKGHPFFE

Variants of: B1
Test: protein stability index of a GFP-peptide fusion (GPS, HEK-293T) (PSI 1-6); higher = more stable
Settings: c terminus: a fixed tail appended
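Note: lentivirally expressed fusions sorted by FACS into six bins by GFP to DsRed ratio, PSI derived from sequencing read proportions per bin multiplied by bin number.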

| Variant | protein stability index |
| --- | --- |
| YARTPTLDPDTMHARLRLSADQLT [R22Q] | 2.59 |
| YARTPTLDPDTMHARLPLSADRLT [R17P] | 2.84 |
| YARTPTLDPDTMHARLNLSADRLT [R17N] | 3.2 |
| YARTPTLDPDTMHARLHLSADRLT [R17H] | 2.73 |
| YARTPTLDPDTMHARLCLSADRLT [R17C] | 2.25 |
| YARTPTLDPDTMHARLTLSADRLT [R17T] | 2.91 |
| YARTPTLDPDTMHARLDLSADRLT [R17D] | 3.18 |
| YARTPTLDPDTMHARLYLSADRLT [R17Y] | 2.27 |
| YARTPTLDPDTMHARLSLSADRLT [R17S] | 3.01 |
| YARTPTLDPDTMHARLKLSADRLT [R17K] | 2.58 |
| YARTPTLDPDTMHARLILSADRLT [R17I] | 2.81 |
| YARTPTLDPDTMHARLALSADRLT [R17A] | 2.89 |
| YARTPTLDPDTMHARLWLSADRLT [R17W] | 1.42 |
| YARTPTLDPDTMHARLELSADRLT [R17E] | 3.04 |
| YARTPTLDPDTMHARLFLSADRLT [R17F] | 2.02 |
| YARTPTLDPDTMHARLLLSADRLT [R17L] | 2.29 |
| YARTPTLDPDTMHARLVLSADRLT [R17V] | 2.31 |
| YARTPTLDPDTMHARLGLSADRLT [R17G] | 3.01 |
| YARTPTLDPDTMHARLQLSADRLT [R17Q] | 2.56 |
| YARTPTLDPDTMHARLMLSADRLT [R17M] | 2.42 |

Variants of: B2
Test: as above
Settings: c terminus: a fixed tail appended

| Variant | protein stability index |
| --- | --- |
| FIIDSENRIGNSGVEEIKGHPFFE [C2I] | 2.69 |
| FDIDSENRIGNSGVEEIKGHPFFE [C2D] | 3.12 |
| FKIDSENRIGNSGVEEIKGHPFFE [C2K] | 3.37 |
| FAIDSENRIGNSGVEEIKGHPFFE [C2A] | 2.58 |
| FEIDSENRIGNSGVEEIKGHPFFE [C2E] | 4.7 |
| FHIDSENRIGNSGVEEIKGHPFFE [C2H] | 1.99 |
| FFIDSENRIGNSGVEEIKGHPFFE [C2F] | 3.12 |
| FGIDSENRIGNSGVEEIKGHPFFE [C2G] | 4.21 |
| SCIDSENRIGNSGVEEIKGHPFFE [F1S] | 4.34 |
| KCIDSENRIGNSGVEEIKGHPFFE [F1K] | 4.3 |
| DCIDSENRIGNSGVEEIKGHPFFE [F1D] | 4.9 |
| GCIDSENRIGNSGVEEIKGHPFFE [F1G] | 4.26 |
| NCIDSENRIGNSGVEEIKGHPFFE [F1N] | 4.4 |
| TCIDSENRIGNSGVEEIKGHPFFE [F1T] | 4.42 |
| LCIDSENRIGNSGVEEIKGHPFFE [F1L] | 3.66 |
| WCIDSENRIGNSGVEEIKGHPFFE [F1W] | 3.19 |
| ACIDSENRIGNSGVEEIKGHPFFE [F1A] | 4.85 |
| YCIDSENRIGNSGVEEIKGHPFFE [F1Y] | 2.48 |
| HCIDSENRIGNSGVEEIKGHPFFE [F1H] | 4.55 |
| MCIDSENRIGNSGVEEIKGHPFFE [F1M] | 4.78 |
| PCIDSENRIGNSGVEEIKGHPFFE [F1P] | 4.45 |
| QCIDSENRIGNSGVEEIKGHPFFE [F1Q] | 4.91 |
| VCIDSENRIGNSGVEEIKGHPFFE [F1V] | 3.77 |
| ICIDSENRIGNSGVEEIKGHPFFE [F1I] | 3.24 |
| CCIDSENRIGNSGVEEIKGHPFFE [F1C] | 2.84 |
| RCIDSENRIGNSGVEEIKGHPFFE [F1R] | 5.09 |
| ECIDSENRIGNSGVEEIKGHPFFE [F1E] | 4.61 |
